{
  "source": "the RNAGym collection of RNA variant scans (doi:10.1093/molbev/msab373)",
  "parents": {"B1": {"name": "Azoarcus group I ribozyme (parent)", "chain": "GUGCCUUGCGCCGGGAAACCACGCAAGGGAUGGUGUCAAAUUCGGCGAAACCUAAGCGCCCGCCCGGGCGUAUGGCAACGCCGAGCCAAGCUUCGGCGCCUGCGCCGAUGAAGGUGUAGAGACUAGACGGCACCCACCUAAGGCAAACGCUAUGGUGAAGGCAUAGUCCAGGGAGUGGCGAAAGUCACACAAACCGG"}},
  "data": [
    {"variants_of": "B1", "experiment": "reverse-splicing fitness (ratio to wild type); higher = more active; in vitro selection; Mg2+ level not given", "procedure,_shortened": "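An in vitro group I ribozyme library with randomized positions was T7-transcribed and gel-purified. In triplicate, 10 pmol RNA in EPPS pH 7.5 was reacted with 50 pmoles of a 30-nt RNA substrate for 1 h at 37 °C across several added MgCl2 levels (1–48 mM), then stopped with EDTA. Products were reverse transcribed from a substrate-complementary primer, PCR-amplified and sequenced (HiSeq 4000). Fitness is a variant's read proportion after selection over that before, normalised to wild type.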", "values": [
      {"variant": "A111U A120C A145C C169U U176A", "reverse-splicing fitness": 0.0309},
      {"variant": "A111U A120C A145U C150G C169G U176A", "reverse-splicing fitness": 0.00683},
      {"variant": "A111U A120C A145U C150G C169G U176C", "reverse-splicing fitness": 0.005},
      {"variant": "A111U A120C A145U C150G C169G U176G", "reverse-splicing fitness": 0.00491},
      {"variant": "A111U A120C A145G C150G C169A", "reverse-splicing fitness": 0.0087},
      {"variant": "A111U A120C A145G C150G C169U", "reverse-splicing fitness": 0.0226},
      {"variant": "A111U A120C A145G C150G C169G", "reverse-splicing fitness": 0.00738},
      {"variant": "A111G C150G C169A U176C", "reverse-splicing fitness": 0.0111},
      {"variant": "A111G C150G C169A U176G", "reverse-splicing fitness": 0.00557},
      {"variant": "A111G C150G C169A U176A", "reverse-splicing fitness": 0.0101},
      {"variant": "A111G C150U C169G U176A", "reverse-splicing fitness": 0.0243},
      {"variant": "A111G C150U C169G U176G", "reverse-splicing fitness": 0.00579},
      {"variant": "A111G C150U C169G U176C", "reverse-splicing fitness": 0.0386},
      {"variant": "A111U A120C A145C C150U U176A", "reverse-splicing fitness": 0.0815},
      {"variant": "A111U A120C A145C C150U U176C", "reverse-splicing fitness": 0.0967},
      {"variant": "A111U A120C A145C C150U U176G", "reverse-splicing fitness": 0.019},
      {"variant": "A111G C150G U176A", "reverse-splicing fitness": 0.0982},
      {"variant": "A111G C150G U176G", "reverse-splicing fitness": 0.0168},
      {"variant": "A111G C150G U176C", "reverse-splicing fitness": 0.166},
      {"variant": "A111U A120C A145U C150U C169A U176A", "reverse-splicing fitness": 0.0134},
      {"variant": "A111U A120C A145U C150U C169A U176C", "reverse-splicing fitness": 0.00725},
      {"variant": "A111U A120C A145U C150U C169A U176G", "reverse-splicing fitness": 0.0056},
      {"variant": "A111U", "reverse-splicing fitness": 0.971},
      {"variant": "A111G C150U C169A U176A", "reverse-splicing fitness": 0.0169},
      {"variant": "A111G C150U C169A U176G", "reverse-splicing fitness": 0.00554},
      {"variant": "A111G C150U C169A U176C", "reverse-splicing fitness": 0.0193},
      {"variant": "A111U A120C A145C C150G C169A U176A", "reverse-splicing fitness": 0.00803},
      {"variant": "A111U A120C A145C C150G C169A U176C", "reverse-splicing fitness": 0.00519},
      {"variant": "A111U A120C A145C C150G C169A U176G", "reverse-splicing fitness": 0.00509},
      {"variant": "A111U A120C C150U C169A U176G", "reverse-splicing fitness": 0.00509},
      {"variant": "A111U A120C C150U C169A U176C", "reverse-splicing fitness": 0.0126},
      {"variant": "A111U A120C C150U C169A U176A", "reverse-splicing fitness": 0.018},
      {"variant": "A111U A120C A145G C150A", "reverse-splicing fitness": 0.0986},
      {"variant": "A111U A120C A145G C150G", "reverse-splicing fitness": 0.0716},
      {"variant": "A111U A120C A145G C150U", "reverse-splicing fitness": 0.495},
      {"variant": "A111U A120C A145G C150A C169G U176A", "reverse-splicing fitness": 0.0161},
      {"variant": "A111U A120C A145G C150A C169G U176C", "reverse-splicing fitness": 0.0246},
      {"variant": "A111U A120C A145G C150A C169G U176G", "reverse-splicing fitness": 0.00488},
      {"variant": "A111U A120C A145C C150G C169G U176A", "reverse-splicing fitness": 0.00898},
      {"variant": "A111U A120C A145C C150G C169G U176G", "reverse-splicing fitness": 0.00475},
      {"variant": "A111U A120C A145C C150G C169G U176C", "reverse-splicing fitness": 0.0059},
      {"variant": "A111G C150G C169G", "reverse-splicing fitness": 0.0138},
      {"variant": "A111G C150G C169A", "reverse-splicing fitness": 0.0114},
      {"variant": "A111G C150G C169U", "reverse-splicing fitness": 0.0227},
      {"variant": "A111U A120C A145G C150A C169A U176A", "reverse-splicing fitness": 0.0184},
      {"variant": "A111U A120C A145G C150A C169A U176C", "reverse-splicing fitness": 0.0204},
      {"variant": "A111U A120C A145G C150A C169A U176G", "reverse-splicing fitness": 0.00601},
      {"variant": "A111U A120C A145C U176C", "reverse-splicing fitness": 0.243},
      {"variant": "A111U A120C A145C U176A", "reverse-splicing fitness": 0.232},
      {"variant": "A111U A120C A145C U176G", "reverse-splicing fitness": 0.0498},
      {"variant": "A111U A120G", "reverse-splicing fitness": 0.174},
      {"variant": "A111U A120C", "reverse-splicing fitness": 0.587},
      {"variant": "A111U A120C A145U C150G C169U", "reverse-splicing fitness": 0.0242},
      {"variant": "A111U A120C A145U C150G C169G", "reverse-splicing fitness": 0.00662},
      {"variant": "A111U A120C A145U C150G C169A", "reverse-splicing fitness": 0.00829},
      {"variant": "A111G C150U C169U U176G", "reverse-splicing fitness": 0.00703},
      {"variant": "A111G C150U C169U U176A", "reverse-splicing fitness": 0.0336},
      {"variant": "A111G C150U C169U U176C", "reverse-splicing fitness": 0.0507},
      {"variant": "A111U A120C A145G C150U C169U U176C", "reverse-splicing fitness": 0.0389},
      {"variant": "A111U A120C A145G C150U C169U U176A", "reverse-splicing fitness": 0.0282},
      {"variant": "A111U A120C A145G C150U C169U U176G", "reverse-splicing fitness": 0.0053},
      {"variant": "A111G A145U C169G", "reverse-splicing fitness": 0.13},
      {"variant": "A111G A145U C169U", "reverse-splicing fitness": 0.194},
      {"variant": "A111U A120C A145G C150G C169U U176C", "reverse-splicing fitness": 0.0127},
      {"variant": "A111U A120C A145G C150G C169U U176G", "reverse-splicing fitness": 0.00652},
      {"variant": "A111U A120C A145G C150G C169U U176A", "reverse-splicing fitness": 0.0118},
      {"variant": "A111U A120C A145G C150U C169U", "reverse-splicing fitness": 0.148},
      {"variant": "A111U A120C A145G C150U C169A", "reverse-splicing fitness": 0.0113},
      {"variant": "A111U A120C A145G C150U C169G", "reverse-splicing fitness": 0.00992},
      {"variant": "A111U A120C C150U C169G U176C", "reverse-splicing fitness": 0.0132},
      {"variant": "A111U A120C C150U C169G U176A", "reverse-splicing fitness": 0.0138},
      {"variant": "A111U A120C C150U C169G U176G", "reverse-splicing fitness": 0.00495},
      {"variant": "A111U A120C A145G C150G C169A U176C", "reverse-splicing fitness": 0.0123},
      {"variant": "A111U A120C A145G C150G C169A U176G", "reverse-splicing fitness": 0.00732},
      {"variant": "A111U A120C A145G C150G C169A U176A", "reverse-splicing fitness": 0.0117},
      {"variant": "A111G C150A C169G", "reverse-splicing fitness": 0.0174},
      {"variant": "A111G C150A C169A", "reverse-splicing fitness": 0.0135},
      {"variant": "A111G C150A C169U", "reverse-splicing fitness": 0.0262},
      {"variant": "A111U A120C A145C C150A C169U U176C", "reverse-splicing fitness": 0.0123},
      {"variant": "A111U A120C A145C C150A C169U U176A", "reverse-splicing fitness": 0.0169},
      {"variant": "A111U A120C A145C C150A C169U U176G", "reverse-splicing fitness": 0.00524},
      {"variant": "A111U A120C C150A", "reverse-splicing fitness": 0.0636},
      {"variant": "A111U A120C C150U", "reverse-splicing fitness": 0.348},
      {"variant": "A111U A120C C150G", "reverse-splicing fitness": 0.0482}
    ]}
  ]
}
